“Also recorded” adds a separate entry of the source. *1 amine or outer side, *2 acyl side, *3 side chain or, on linkers, in order; H or OH if unused. Where a SMILES comes first, the peptide text is derived from it. Where no end group is shown, it is not given here. The star is where a group is joined. Doxorubicin(3'-N) = COc1cccc2c1C(=O)c1c(O)c3c(c(O)c1C2=O)C[C@@](O)(C(=O)CO)C[C@@H]3O[C@H]1C[C@H](N*)[C@H](O)[C@H](C)O1; Suc = O=C(CCC(=O)[*:2])[*:1]
Assays:
[1] = Hot Plate model (latency time); format: in vivo, mouse; details: for Latency time: 2 mg/Kg i.v. (dalargine equivalent), 5 minutes after injection; for Effect on latency time / analgesic activity: i.v. injection, latency measured 0 to 90 minutes
Protocol: For the purposes of this study, the biological activity of dalargine alone was compared with the biological activity of dalargine vectorised with SynB1. Consequently, the “Hot Plate” model in the mouse was used. In this model, the mouse is placed on a hot plate and the time that the mouse takes to react to heat is measured as the “latency time”.
2 mg/Kg of each product was injected intravenously into the mouse (the dose corresponding to the quantity of dalargine). After times varying from 0 to 90 minutes, the latency time was measured. […] The latency time is constant. […] For example 5 minutes after injection, the latency time of vectorised dalargine is 22.75 seconds, whereas it is only 7.6 seconds for dalargine alone.

[2] = test system: HEB; test: Tolerance to products: integrity of HEB by [3H]-sucrose distribution volume during in situ cerebral perfusion; details: co-perfused with [3H]-sucrose
Text: This is a fast and sensitive method of evaluating the penetration of various compounds into the central nervous system (Takasato et al., 1984, Am. J. Physiol. 247, 484-493; Allen et al., 1997, Pharm Res. 14, 337-341). Two month old male Sprague-dawley rats (250-350 g. Iffa-Credo; l'Arbresle, France) are anaesthetised. After exposure of the common carotid, the right external carotid artery is bound at the junction with the internal carotid and the common carotid is bound between the heart and the site at which the catheter is installed (polyethylene catheter, ID=0.76). This catheter, previously filled with a solution of heparin (100 units/ml) is inserted into the common carotid. Rats are perfused with the perfusion buffer (128 mM NaCl, 24 mM NaHCO3, 4.2 mM KCl, 2.4 mM NaH2PO4, 1.5 mM CaCl2, 0.9 mM MgSO4, and 9 mM D-glucose). This buffer is filtered and then is bubbled using a mix containing 95% O2/5% CO2 in order to keep the pH close to 7.4 and to supply oxygen to the brain during the perfusion.
It is estimated that this volume must not exceed […]. For larger volumes, it is concluded that the permeability of HEB is abnormal.
Doxorubicin, compounds numbers 1 and 2 were injected in the presence of sucrose and the integrity of the HEB is measured.

[3] = Capillary depletion after cerebral perfusion and rinsing (distribution volume Vd); format: in vivo, rat
Protocol: This method is used to measure the distribution of products between the cerebral parenchyma and endothelial cells, Triguero et al., 1990, J. Neurochem. 54, 1882-1888). After 60 seconds of perfusion, that may or may not be followed by 30 seconds rinsing, the right hemisphere is removed, its meninges and choroid plexus are removed, and it is then homogenized in 3.5 ml of Hepes buffer (10 mM of Hepes, 141 mM of NaCl, 4 mM of KCl, 1 mM of NaH2PO4, 2.8 mM of CaCl2, 1 mM of MgSO4 and 10 mM of D-glucose, pH=7.4). After grinding in the potter, 4 ml of solution containing 4% of Dextran (PM=76900) are added and the mix is stirred vigorously in order to obtain a […]. All these operations are carried out at 4° C. in less than 5 minutes. After taking a sample of the homogenate thus obtained, the homogenate is then put into the centrifuge for 15 minutes at 5400 g in order to separate the endothelial cells present in the base of the cerebral parenchyma that remained in the floating material. The results are expressed as distribution volumes in the floating material and the base.
This method measures the distribution of products between the cerebral parenchyma and endothelial cells. Capillary depletion is carried out after 60 seconds perfusion followed by 30 seconds rinsing. The distribution volumes (Vd) in endothelial cells and the cerebral parenchyma are expressed in microliters/g.

[4] = Intravenous injection in NMRI-nude mice, radioactivity in the brain; details: for Product quantity in brain: i.v. 2.5 mg DXR base/kg
Protocol: NMRI-nude mice are injected intravenously with compound No. 1 or doxorubicin alone at a dose of 2.5 mg/kg (equivalent in doxorubicin). The doxorubicin is marked with carbon 14 (about 0.5 microCi is injected per mouse). The mice are sacrificed after 1, 5, 15, 30, 60, 180, 480 and 1360 minutes. The organs are then removed and counted. The quantity of radioactivity in each organ is then expressed as the quantity of product per gram of organ. In this study, we used five mice for each period of time.
After intravenous injection of compound No. 1, nude mice were sacrificed at different times and the total radioactivity in the brain was counted and expressed as a quantity of product per gram of brain.

[5] = for Reduction of the influx constant after rinsing: 60 s perfusion then 30 s rinsing with buffer without tracer
Protocol: For rats on which the rinsing step is carried out, the catheter is inserted into the common carotid as described above, and is then connected to a 4-way valve (opposite passages) (Hamilton, USA) connected to two syringes; one containing the radio-marked tracer (syringe A) and the other the buffer alone (syringe B). Once the catheter is in position and the connections have been made correctly, the thoracic cage of the rat is opened and the heart is cut. The contents of syringe A are then immediately perfused at a rate of 10 ml/min. After 60 seconds, the contents of syringe B are injected in turn at the same rate. The rat is decapitated after 30 seconds of rinsing.
Rinsing of cerebral capillaries by perfusion of the buffer without tracer for 30 seconds eliminates the fraction of the product being studied adhering to the luminal membrane of endothelial cells, if any.

[6] = In situ cerebral perfusion, penetration into the brain (influx constant Kin); format: in vivo, rat
Protocol: The rats are perfused with the buffer containing free doxorubicin or compounds No. 1 or 2. The doxorubicin is radio-marked with carbon 14 in each product (specific activity=9.4 microCi/mg, Amersham, France). The products are perfused at a concentration of 0.33 microCi/ml or 0.035 mg/rat.
The heart is stopped by cutting the ventricles immediately before perfusion starts, in order to prevent reflux of the perfusate during the perfusion.
The brain is removed quickly after decapitation. The brain is dissected on a mirror into 8 regions, namely Hypothalamus (HY), frontal Cortex (CF), Mesencephale (MS), Occipital Cortex (CO), Parietal Cortex (CP), Thalamus (TH), Hippocampus (HP), Striatum (ST), which are placed in previously calibrated glass flasks and then weighed. These structures and 50 microliters of perfusate are digested for two hours in 1 ml of soluene at 60° C. A scintillating cocktail (10 ml, Pico-fluor, Packard) is added to each sample and the quantity of tracers contained in them is measured by double counting in liquid scintillation (Packard, Tricarb, 1900TR).
This study consisted of comparing penetration in the HEB of doxorubicin alone with doxorubicin using compounds numbers 1 and 2 as vectors. After 60 seconds perfusion in the buffer, the penetration of products was estimated using the influx constant or Kin in microl/sec/g. […]

[7] = Intravenous injection in CD1 mice, whole-body autoradiography, brain; details: i.v. 2 mg DXR base/kg
Protocol: In the case of compound No. 2, the CD1 mouse is injected intravenously with compound No. 2 or with free doxorubicin at a dose of 2 mg/kg (equivalent in doxorubicin). Doxorubicin is marked with carbon 14 (about 3 microCi is injected per mouse). The mouse is sacrificed after 15 minutes, 2 hours and 8 hours, and the product quantity in each organ is analysed using the “Whole-body autoradiography” technique. The quantity of radioactivity in each organ is then expressed as a quantity of product per gram of organ. We used one mouse per group in this experiment.
The total radioactivity in the brain is analysed using the “Whole body autoradiography” method and is expressed as a product quantity per gram of brain.

[8] = 60 seconds perfusion followed by 30 seconds rinsing

Y-(D)A-GFLR [dalargine, reference compound]
Latency time [1]: 7.6 s | Effect on latency time / analgesic activity [1]: no effect was observed

Doxo-CO—(CH2)2—CO-RGGRLSYSRRRFSTSTGR ({doxorubicin-Suc}-RGGRLSYSRRRFSTSTGR) [Compound No. 1]
State of the HEB ([2]; perfused dose 0.05 mg): Integral | State of the HEB ([2]; perfused dose 0.8 mg): does not open the HEB abnormally; also recorded: Integral | Vd in the cerebral parenchyma [3, 8]: 28.5 µL/g | Fraction of compound found in the cerebral parenchyma ([3]; 1 minute perfusion followed by 30 seconds rinsing): About 60% | Ratio of compound No. 1/doxorubicin (brain quantity) ([4]; 1 min after i.v. injection): 3.4 | Ratio of compound No. 1/doxorubicin (brain quantity) ([4]; 5 min after i.v. injection): 3.6 | Ratio of compound No. 1/doxorubicin (brain quantity) ([4]; 15 min after i.v. injection): 10.5 | Ratio of compound No. 1/doxorubicin (brain quantity) ([4]; 30 min after i.v. injection): 5 | Ratio of compound No. 1/doxorubicin (brain quantity) ([4]; 60 min after i.v. injection): 3 | Ratio of compound No. 1/doxorubicin (brain quantity) ([4]; 180 min after i.v. injection): 1 | Product quantity in brain ([4]; 1 min): 0.48 microg/g of brain | Product quantity in brain ([4]; 5 min): 0.18 microg/g of brain | Product quantity in brain ([4]; 15 min): 0.42 microg/g of brain | Product quantity in brain ([4]; 30 min): 0.25 microg/g of brain | Product quantity in brain ([4]; 60 min): 0.12 microg/g of brain | Product quantity in brain ([4]; 180 min): 0.03 microg/g of brain | Product quantity in brain ([4]; 480 min): 0.02 microg/g of brain | Product quantity in brain ([4]; 1360 min): 0.01 microg/g of brain | Increase of penetration after rinsing compared with free doxorubicin (factor) ([5]; 60 s perfusion then 30 s rinsing): 4 | Reduction of the influx constant after rinsing [5]: 45%

COc1cccc2c1C(=O)c1c(O)c3c(c(O)c1C2=O)C[C@@](O)(C(=O)CO)C[C@@H]3O[C@H]1C[C@H](NC(=O)CCC(=O)N[C@@H](CCCNC(=N)N)C(=O)N[C@@H](CCCNC(=N)N)C(=O)N[C@@H](CC(C)C)C(=O)N[C@@H](CO)C(=O)N[C@@H](Cc2ccc(O)cc2)C(=O)N[C@@H](CO)C(=O)N[C@@H](CCCNC(=N)N)C(=O)N[C@@H](CCCNC(=N)N)C(=O)N[C@@H](CCCNC(=N)N)C(=O)N[C@@H](Cc2ccccc2)C(=O)O)[C@H](O)[C@H](C)O1 [No. 5, Doxo-CO—(CH2)2—CO-RRLSYSRRRF] ({Doxorubicin(3'-N)-Suc}-RRLSYSRRRF-OH)
Increase of transfer into the brain (Kin) compared with doxorubicin alone ([6]; 60 seconds perfusion in the buffer): five times | Penetration in the cerebral parenchyma compared with free doxorubicin [3, 8]: 50 times | Vd in the cerebral parenchyma [3, 8]: 98.32 µL/g

COc1cccc2c1C(=O)c1c(O)c3c(c(O)c1C2=O)C[C@@](O)(C(=O)CO)C[C@@H]3O[C@H]1C[C@H](N)[C@H](O)[C@H](C)O1 [doxorubicin, Doxorubicin, reference compound]
State of the HEB ([2]; perfused dose 0.07 mg): Integral | Vd in the cerebral parenchyma [3, 8]: 1.75 µL/g | Product quantity in brain ([4]; 1 min): 0.14 microg/g of brain | Product quantity in brain ([4]; 5 min): 0.05 microg/g of brain | Product quantity in brain ([4]; 15 min): 0.04 microg/g of brain | Product quantity in brain ([4]; 30 min): 0.05 microg/g of brain | Product quantity in brain ([4]; 60 min): 0.04 microg/g of brain | Product quantity in brain ([4]; 180 min): 0.03 microg/g of brain | Product quantity in brain ([4]; 480 min): 0.04 microg/g of brain | Product quantity in brain ([4]; 1360 min): 0.01 microg/g of brain | Product quantity in brain ([7]; 15 min): 1.24 ug/g of brain | Product quantity in brain ([7]; 120 min): 0.98 ug/g of brain | Product quantity in brain ([7]; 480 min): 0.67 ug/g of brain | Reduction of the influx constant after rinsing [5]: about 25%

CC1(C)S[C@@H]2[C@H](NC(=O)Cc3ccccc3)C(=O)N2[C@H]1C(=O)O [benzylpenicillin, Benzylpenicillin, reference compound]
Vd in the cerebral parenchyma ([3]; 30 seconds perfusion followed by 30 seconds rinsing): 3.94 µL/g

Y-(D)A-GFLR-S-S-RGGRLSYSRRRFSTSTGR [dal-SynB1]
Transfer into the brain (Kin) compared with dalargine alone ([6]; 60 seconds perfusion in the buffer (FIG. 7)): considerably increases its transfer into the brain | Latency time [1]: 22.75 s | Effect on latency time / analgesic activity [1]: an increase in the latency time is observed

RGGRLSYSRRRFSTSTGR (PEPTIDE (1)..(18) Syn B1) [SynB1]
Effect on latency time / analgesic activity [1]: no analgesic activity
